In the supplement of paper PMC10567573:

B1: ZNF232 (parent)
chain: GKAYGWCSELIRHRRVHARKEPSH

Variants of: B1
Assay: protein stability index of a GFP-peptide fusion (GPS, HEK-293T) (PSI 1-6); higher = more stable
Settings: c terminus: a fixed tail appended
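Note: lentivirally expressed fusions sorted by FACS into six bins by GFP to DsRed ratio, PSI derived from sequencing read proportions per bin multiplied by bin number.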

Variant	protein stability index
GKAYGWCSELIRHRRVHARKMPSH	2.37
GKAYGWCSELIRHRRVHARKFPSH	2.04
GKAYGWCSELIRHRRVHARKSPSH	3.3
GKAYGWCSELIRHRRVHARKQPSH	2.69
GKAYGWCSELIRHRRVHARKRPSH	3.3
GKAYGWCSELIRHRRVHARKPPSH	2.79
GKAYGWCSELIRHRRVHARKIPSH	2.46
GKAYGWCSELIRHRRVHARKGPSH	2.58
GKAYGWCSELIRHRRVHARKCPSH	2.36
GKAYGWCSELIRHRRVHARKVPSH	3.1
GKAYGWCSELIRHRRVHARKAPSH	2.92
GKAYGWCSELIRHRRVHARKLPSH	1.91
GKAYGWCSELIRHRRVHARKHPSH	2.63
GKAYGWCSELIRHRRVHARKYPSH	2.81
GKAYGWCSELIRHRRVHARKWPSH	2.19
GKAYGWCSELIRHRRVHARKDPSH	2.75
GKAYGWCSELIRHRRVHARKKPSH	3.15
GKAYGWCSELIRHRRVHARKNPSH	3.24
GKAYGWCSELIRHRRVHARKTPSH	2.69
GKAYGWCSELIRHRRVHAHKEPSH	2.66
GKAYGWCSELIRHRRVHANKEPSH	3.81
GKAYGWCSELIRHRRVHAFKEPSH	2.15
GKAYGWCSELIRHRRVHAPKEPSH	2.37
GKAYGWCSELIRHRRVHAKKEPSH	2.82

Variant	protein stability index
GKAYGWCSELIRHRRVHAWKEPSH	2.15
GKAYGWCSELIRHRRVHASKEPSH	2.8
GKAYGWCSELIRHRRVHALKEPSH	1.94
GKAYGWCSELIRHRRVHATKEPSH	2.89
GKAYGWCSELIRHRRVHAEKEPSH	3.53
GKAYGWCSELIRHRRVHAQKEPSH	3.44
GKAYGWCSELIRHRRVHAAKEPSH	2.54
GKAYGWCSELIRHRRVHAMKEPSH	3.18
GKAYGWCSELIRHRRVHAGKEPSH	3.01
GKAYGWCSELIRHRRVHAVKEPSH	2.52
GKAYGWCSELIRHRRVHAIKEPSH	3.09
GKAYGWCSELIRHRRVHADKEPSH	3.31
GKAYGWCSELIRHRRVHACKEPSH	2.68
GKAYGWCSELIRHRRVHAYKEPSH	1.81
GKAYGWCSELIRHRRVHARKEASH	3.39
GKAYGWCSELIRHRRVHARKEISH	2.27
GKAYGWCSELIRHRRVHARKEFSH	1.8
GKAYGWCSELIRHRRVHARKENSH	2.98
GKAYGWCSELIRHRRVHARKECSH	2.52
GKAYGWCSELIRHRRVHARKEGSH	2.71
GKAYGWCSELIRHRRVHARKEMSH	2.3
GKAYGWCSELIRHRRVHARKELSH	2.93
GKAYGWCSELIRHRRVHARKEDSH	3.14
GKAYGWCSELIRHRRVHARKEESH	4.22

Variant	protein stability index
GKAYGWCSELIRHRRVHARKEHSH	3.42
GKAYGWCSELIRHRRVHARKEKSH	2.92
GKAYGWCSELITHRRVHARKEPSH	3.1
GKAYGWCSELISHRRVHARKEPSH	3.16
GKAYGWCSELIYHRRVHARKEPSH	2.32
GKAYGWCSELIVHRRVHARKEPSH	2.31
GKAYGWCSELIWHRRVHARKEPSH	2.14
GKAYGWCSELIRHERVHARKEPSH	2.86
GKAYGWCSELIRHFRVHARKEPSH	2.33
GKAYGWCSELIRHHRVHARKEPSH	2.77
GKAYGWCSELIRHLRVHARKEPSH	2.03
GKAYGWCSELIRHTRVHARKEPSH	2.62
GKAYGWCSELIRHCRVHARKEPSH	1.86
GKAYGWCSELIRHARVHARKEPSH	2.9
GKAYGWCSELIRHGRVHARKEPSH	2.72
GKAYGWCSELIRHIRVHARKEPSH	2.04
GKAYGWCSELIRHWRVHARKEPSH	1.94
GKAYGWCSELIRHVRVHARKEPSH	2.45
GKAYGWCSELIRHKRVHARKEPSH	2.61
GKAYGWCSELIRHMRVHARKEPSH	1.73
GKAYGWCSELIRHSRVHARKEPSH	2.27
GKAYGWCSELIRHDRVHARKEPSH	2.65
GKAYGWCSELIRHQRVHARKEPSH	3.08
GKAYGWCSELIRHYRVHARKEPSH	2.05

Variant	protein stability index
GKAYGWCSELIRHNRVHARKEPSH	3.23
GKAYGWCSELIRHPRVHARKEPSH	2.95
GKAYGWCSELIRHRRKHARKEPSH	3.22
GKAYGWCSELIRHRRTHARKEPSH	3.07
GKAYGWCSELIRHRRFHARKEPSH	2.87
GKAYGWCSELIRHRRCHARKEPSH	2.52
GKAYGWCSELIRHRREHARKEPSH	3.16
GKAYGWCSELIRHRRNHARKEPSH	3.26
GKAYGWCSELIRHRRWHARKEPSH	2.55
GKAYGWCSELIRHRRMHARKEPSH	3.43
GKAYGWCSELIRHRRHHARKEPSH	3.41
GKAYGWCSELIRHRRPHARKEPSH	3.35
GKAYGWCSELIRHRRAHARKEPSH	2.71
GKAYGWCSELIRHRRSHARKEPSH	3.48
GKAYGWCSELIRHRRLHARKEPSH	2.9
GKAYGWCSELIRHRRRHARKEPSH	3.67
GKAYGWCSELIRHRRQHARKEPSH	3.53
GKAYGWCSELIRHRRIHARKEPSH	2.42
GKAYGWCSELIRHRRGHARKEPSH	3.53
GKAYGWCSELIRHRRDHARKEPSH	3.49
GKAYGWCSELIRHRRYHARKEPSH	2.74
GKAYGWCSELIRHRRVKARKEPSH	3.32
GKAYGWCSELIRHRRVMARKEPSH	2.75
GKAYGWCSELIRHRRVRARKEPSH	3.03

Variant	protein stability index
GKAYGWCSELIRHRRVDARKEPSH	3.36
GKAYGWCSELIRHRRVGARKEPSH	3.57
GKAYGWCSELIRHRRVWARKEPSH	1.87
GKAYGWCSELIRHRRVFARKEPSH	2.49
GKAYGWCSELIRHRRVPARKEPSH	3.02
GKAYGWCSELIRHRRVCARKEPSH	3.46
GKAYGWCSELIRHRRVVARKEPSH	2.84
GKAYGWCSELIRHRRVSARKEPSH	2.76
GKAYGWCSELIRHRRVTARKEPSH	3.28
GKAYGWCSELIRHRRVNARKEPSH	2.72
GKAYGWCSELIRHRRVYARKEPSH	2.16
GKAYGWCSELIRHRRVEARKEPSH	3.28
GKAYGWCSELIRHRRVQARKEPSH	3.04
GKAYGWCSELIRHRRVAARKEPSH	2.77
GKAYGWCSELIRHRRVLARKEPSH	2.99
GKAYGWCSELIRHRRVIARKEPSH	2.51
GKAYGWCSELIRHRRVHFRKEPSH	2.49
GKAYGWCSELIRHRRVHPRKEPSH	3.33
GKAYGWCSELIRHRRVHMRKEPSH	3.25
GKAYGWCSELIRHRRVHNRKEPSH	2.84
GKAYGWCSELIRHRRVHQRKEPSH	2.81
GKAYGWCSELIRHRRVHGRKEPSH	3
GKAYGWCSELIRHRRVHSRKEPSH	3.37
GKAYGWCSELIRHRRVHERKEPSH	3.74

Variant	protein stability index
GKAYGWCSELIRHRRVHDRKEPSH	3.84
GKAYGWCSELIRHRRVHYRKEPSH	2.76
GKAYGWCSELIRHRRVHRRKEPSH	3.28
GKAYGWCSELIRHRRVHCRKEPSH	2.88
GKAYGWCSELIRHRRVHLRKEPSH	2.13
GKAYGWCSELIRHRRVHWRKEPSH	1.83
GKAYGWCSELIRHRRVHKRKEPSH	3.19
GKAYGWCSELIRHRRVHVRKEPSH	2.59
GKAYGWCSELIRHRRVHHRKEPSH	2.86
GKAYGWCSELIRHRRVHTRKEPSH	3.28
GKAYGWCSELIRHRRVHIRKEPSH	3.04
GKAYGWCSELIRHRRVHARFEPSH	1.9
GKAYGWCSELIRHRRVHARMEPSH	2.18
GKAYGWCSELIRHRRVHARREPSH	2.12
GKAYGWCSELIRHRRVHARHEPSH	2.97
GKAYGWCSELIRHRRVHARTEPSH	3.28
GKAYGWCSELIRHRRVHARDEPSH	3.45
GKAYGWCSELIRHRRVHAREEPSH	3.07
GKAYGWCSELIRHRRVHARIEPSH	2.05
GKAYGWCSELIRHRRVHARQEPSH	2.8
GKAYGWCSELIRHRRVHARPEPSH	2.62
GKAYGWCSELIRHRRVHARVEPSH	3.22
GKAYGWCSELIRHRRVHARCEPSH	2.6
GKAYGWCSELIRHRRVHARGEPSH	2.86

Variant	protein stability index
GKAYGWCSELIRHRRVHARWEPSH	1.82
GKAYGWCSELIRHRRVHARLEPSH	1.93
GKAYGWCSELIRHRRVHARNEPSH	2.58
GKAYGWCSELIRHRRVHARSEPSH	2.86
GKAYGWCSELIRHRRVHARAEPSH	3.19
GKAYGWCSELIRHRRVHARYEPSH	1.86
GKAYGWCSELIRPRRVHARKEPSH	2.75
GKAYGWCSELIRCRRVHARKEPSH	2.39
GKAYGWCSELIRERRVHARKEPSH	3.42
GKAYGWCSELIRNRRVHARKEPSH	2.69
GKAYGWCSELIRDRRVHARKEPSH	2.99
GKAYGWCSELIRMRRVHARKEPSH	2.36
GKAYGWCSELIRTRRVHARKEPSH	3.16
GKAYGWCSELIRLRRVHARKEPSH	1.97
GKAYGWCSELIRARRVHARKEPSH	2.62
GKAYGWCSELIRSRRVHARKEPSH	2.57
GKAYGWCSELIRFRRVHARKEPSH	1.94
GKAYGWCSELIRGRRVHARKEPSH	3.46
GKAYGWCSELIRKRRVHARKEPSH	3.29
GKAYGWCSELIRWRRVHARKEPSH	3.04
GKAYGWCSELIRYRRVHARKEPSH	2.24
GKAYGWCSELIRIRRVHARKEPSH	1.89
GKAYGWCSELIRVRRVHARKEPSH	2.1
GKAYGWCSELIRQRRVHARKEPSH	3.22

Variant	protein stability index
GKAYGWCSELIRRRRVHARKEPSH	3.53
GKAYGWCSELIRHRVVHARKEPSH	2.44
GKAYGWCSELIRHRDVHARKEPSH	2.61
GKAYGWCSELIRHRCVHARKEPSH	1.99
GKAYGWCSELIRHRFVHARKEPSH	2.45
GKAYGWCSELIRHRAVHARKEPSH	2.81
GKAYGWCSELIRHRQVHARKEPSH	3.07
GKAYGWCSELIRHRMVHARKEPSH	3.16
GKAYGWCSELIRHRIVHARKEPSH	2.56
GKAYGWCSELIRHRYVHARKEPSH	2.38
GKAYGWCSELIRHRWVHARKEPSH	2.25
GKAYGWCSELIRHRLVHARKEPSH	2.02
GKAYGWCSELIRHRNVHARKEPSH	2.93
GKAYGWCSELIRHRHVHARKEPSH	2.92
GKAYGWCSELIRHREVHARKEPSH	3.28
GKAYGWCSELIRHRPVHARKEPSH	3.25
GKAYGWCSELIRHRSVHARKEPSH	3.36
GKAYGWCSELIRHRTVHARKEPSH	3.19
GKAYGWCSELIRHRGVHARKEPSH	2.61
GKAYGWCSELIRHRKVHARKEPSH	3
